Experimental data published in patent publication US20110212108A1, “NEUREGULIN/ERBB SIGNALING AND INTEGRIN” (THE REGENTS OF THE UNIVERSITY OF CALIFORNIA, priority 2008, published 2011).
Residue numbers refer to the chain shown, from its start. “Also recorded” adds a separate entry of the source.

How the values were obtained:
[1] = system: mammary intraepithelial neoplasia-outgrowth (MIN-O); assay: Outgrowth of precancer (MIN-O) in FVB mice; type: in vivo; conditions: 200 ng/day/mouse intraperitoneally, 5 days a week for 4 weeks; P=0.0355
Procedure: FIG. 16. Inhibitory effect of daily intraperitoneal injection of 3KE (175-222) on the outgrowth of precancer (MIN-O) in FVB mice. MIN-O was transplanted into fat pads of FVB mice (two per mice) and 3KE (175-222) (200 ng/mouse/day) was injected 5 days a week for 4 weeks starting day 0. After 28 days, mice were sacrificed and the dimensions of tumors were measured. Since MIN-O grows as a thin layer, the two-dimensional size was calculated and the thickness was ignored. P=0.0355 by ANOVA between control and 3KE (175-222).
To study the effect of 3KE (175-222) on the premalignant cancer, transplantable mammary intraepithelial neoplasia-outgrowth (MIN-O) tissue lines, which were derived from hyperplastic mammary lesions in young Tg(MMTV-PyV-mT) females (Maglione et al. 2004), were used. The resulting lesions mimic the biological behavior, molecular biology, and histopathology of human ductal carcinoma in situ (Maglione et al. 2004). One mm^3 pieces of the 8w-BMINO tissues (Maglione et al. 2004) were transplanted to gland-cleared no. 4 mammary fat pads of 3-week-old FVB females bilaterally.

B-16 F10 Cells = assay: B16F10 cell proliferation, MTS assay; type: cell-based, mouse; conditions: 24 hours
Procedure: FIG. 10. […] B-16 F10 Cells were starved for 5 days in DMEM+1% FBS medium, and then added 3KE (175-222) and WT (175-222) NRG1 at indicated concentrations for 24 hours by MTS assays. P=0.0354 (between wt and 3KE+wt) and P<0.0001 (between wt and 3KE) by 2-way ANOVA.
Cell proliferation: cells were starved by culturing DMEM with low-level FCS (e.g., 0.4%) overnight and then treated with the wt or mutant NRG1 (175-222) (up to 100 ng/ml). The cells were harvested in 15 min to 6 h after stimulation and cell lysates analyzed by western blotting with antibodies specific to signaling molecules. Alternatively, cells were cultured for 24-48 h after stimulation for testing proliferation or cell viability by MTS assays. Statistical analysis and calculation of kinetic constants were performed using Prism software (Graphpad).

HaCAT keratinocytes = assay: ERK1/2 activation in HaCAT keratinocytes, Western blotting; type: cell-based; conditions: serum-starved; background Erk1/2 level high
Procedure: FIG. 18. […] HaCAT keratinocytes were serum-starved and incubated with wt NRG1 (175-222) or 3KE (175-222). The levels of Erk1/2 activation were determined by Western blotting.

[2] = biological target: T1, Recombinant human ErbB3 Fc chimera (Homo sapiens, UniProt P21860); assay: ELISA-type binding to immobilized recombinant soluble ErbB3; conditions: ErbB3 Fc coated at 1 μg/ml, 1 h room temperature
T1 construct: Recombinant soluble ErbB3 Fc fusion protein was coated onto well of 96-well microtiter plate; purchased R&D Systems
T1 sequence (P21860 20-643 limits assumed, change not shown): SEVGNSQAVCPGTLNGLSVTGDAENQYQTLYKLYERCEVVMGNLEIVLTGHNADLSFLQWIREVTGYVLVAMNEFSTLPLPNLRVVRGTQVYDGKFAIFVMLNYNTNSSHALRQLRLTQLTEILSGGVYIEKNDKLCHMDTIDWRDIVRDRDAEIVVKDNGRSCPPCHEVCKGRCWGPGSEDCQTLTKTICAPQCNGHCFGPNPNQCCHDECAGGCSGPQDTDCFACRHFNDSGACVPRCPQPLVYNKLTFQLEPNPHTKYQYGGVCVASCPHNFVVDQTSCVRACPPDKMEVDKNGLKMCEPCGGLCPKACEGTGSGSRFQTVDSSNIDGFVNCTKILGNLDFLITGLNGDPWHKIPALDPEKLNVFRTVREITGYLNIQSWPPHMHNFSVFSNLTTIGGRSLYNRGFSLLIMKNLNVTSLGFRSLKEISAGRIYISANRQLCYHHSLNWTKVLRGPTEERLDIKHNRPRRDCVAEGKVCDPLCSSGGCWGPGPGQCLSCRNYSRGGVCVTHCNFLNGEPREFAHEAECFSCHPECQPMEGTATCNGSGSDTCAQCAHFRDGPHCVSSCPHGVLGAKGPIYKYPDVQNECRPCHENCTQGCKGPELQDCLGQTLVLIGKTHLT
Procedure: (§1) FIG. 20. The 3KE mutant of NRG1α (175-241) binds to ErbB3. a). Binding of the 3KE mutant of NRG1α (175-241) to recombinant ErbB3. Recombinant soluble ErbB3 Fc fusion protein (R&D system) was coated onto wells of 96-well microtiter plate (1 μg/ml). NRG1α (175-241) WT or 3KE (175-241) mutant was added to the wells and incubated for 1 h at room temperature. GST was used as a control. After washing the wells, bound GST NRG1α (175-241) was determined by using anti-GST antibody HRP conjugate. […] Competitive binding assay. Recombinant soluble ErbB3 Fc fusion protein was coated onto well of 96-well microtiter plate (1 μg/ml). Binding of biotin labeled NRG1α (175-241) WT (20 nM) in the presence of increasing concentrations of NRG1α (175-241) WT, 3KE (175-241) or GST. After washing the wells, bound biotin labeled NRG1α (175-241) WT was determined by using streptavidin HRP conjugate.

MCF-7 cells = assay: Western blot analysis of NRG1 signaling in MCF-7 cells; type: cell-based, human; conditions: 2.5 nM
Procedure: FIG. 22. Effect of the 3KE mutation on NRG1 signaling. The 3KE mutant of NRG1α (175-241) is defective in inducing ErbB3 phosphorylation, AKT activation and ERK1/2 activation. MCF-7 cells were serum-starved overnight and stimulated with 2.5 nM WT and the 3KE mutant of NRG1α (175-241) at indicated time points. Cell lysates were analyzed by western blotting. […] Data are shown with signals at time 0 as 1.
MCF-7 cells grown to confluence were serum-starved in serum-free medium overnight, and then treated with WT or 3KE mutant NRG1α (175-241) (2.5 nM) for 5 min to 6 h at 37° C. Cells were washed with ice-cold PBS once, and lysed with the lysis buffer (20 mM HEPES (pH 7.4), 100 mM NaCl, 10% Glycerol, 1% NP-40, 1 mM MgCl2, 5 mM EDTA, 0.5% Triton X-100, 1 mM phenylmethylsulfonyl fluoride, 20 mM NaF, 1 mM Na3VO4, protease inhibitor cocktail (Sigma-Aldrich)). Protein concentrations in the cell lysates were determined using BCA protein assay (Pierce). Equal amounts of cell proteins were analyzed by SDS-PAGE and transferred onto 0.45 μm pore-size polyvinylidene fluoride membrane (Milipore, Birellica, Mass.). The membrane was incubated with primary antibodies, then HRP-conjugated secondary antibody and enhanced chemiluminescence detection reagents (Pierce).

[3] = biological target: T1, Recombinant human ErbB3 Fc chimera; assay: Competitive binding assay on immobilized ErbB3; conditions: biotin labeled WT 20 nM
Procedure: as §1
GST-fusion WT NRG1α (175-241) was biotinylated by using EZ-Link Sulfo-NHS-LC-Biotin (Pierce) as described in the manufacturer's instructions. Briefly, GST-fusion WT NRG1α (175-241) was incubated with sulfo-NHS-LCBiotin for 1 hour on ice, and remaining free sulfo-NHS-LC-Biotin was quenched with Tris-HCl buffer pH 8.0. Recombinant human ErbB3 Fc chimera (R&D Systems) was immobilized to wells of 96-well microtiter plate at 1 μg/ml coating concentration in 0.1 M NaHCO3, pH9.4 overnight at 4° C., and the remaining protein binding sites were blocked by incubating with 0.1% BSA. Wells were then incubated with biotinylated GST fusion NRG1α (175-241) in the presence of non-labeled GST, GST-WT NRG1α (175-241) or GST-3KE (175-241) for 3 h at room temperature. Bound biotinylated GST-fusion NRG1α (175-241) WT to wells was determined with streptavidin HRP conjugate and HRP substrate at 490 nm.

[4] = listed as 3KE mutant of NRG1α (175-241)

3KE (175-222): NRG1 (175-222) with Lys181/Lys185/Lys187 mutated to Glu; GTSHLVECAEEEETFCVNGGECFMVKDLSNPSRYLCKCQPGFTGARCT (SEQ ID NO:11) (integrin-binding site within human neuregulin, 3KE mutant, short version)
Outgrowth of MIN-O in FVB mice [1]: effectively suppressed the outgrowth of MIN-O tumors | Induction of cell proliferation in B16F10 cells (B-16 F10 Cells): did not induce them | Suppression of cell proliferation in B16F10 cells (B-16 F10 Cells; P=0.0354 between wt and 3KE+wt): Suppression of cell proliferation | ERK1/2 activation in HaCAT cells (HaCAT keratinocytes): suppressed levels of ERK1/2 activation

wt NRG1 (175-222): wild type human neuregulin 1 fragment, EGF-like domain, residues 175-222 of SEQ ID NO:4 (SEQ ID NO:3) (GTSHLVKCAEKEKTFCVNGGECFMVKDLSNPSRYLCKCQPGFTGARCT; integrin-binding site within human neuregulin 1 EGF-like region and portion of alpha domain, residues 175-222 of human neuregulin 1 alpha) [reference compound]
Induction of cell proliferation in B16F10 cells (B-16 F10 Cells): induced cell proliferation

B1: WT NRG1α (175-241): wild type human neuregulin 1 fragment, residues 175-241 of SEQ ID NO:4 (SEQ ID NO:5), entire EGF-like motif and α domain (protein)
chain: GTSHLVKCAEKEKTFCVNGGECFMVKDLSNPSRYLCKCQPGFTGARCTENVPMKVQNQEKAEELYQK
modifications: integrin-binding site within human neuregulin, residues 175-241of human neuregulin 1alpha, long version
Binding to immobilized soluble ErbB3 (ELISA-type assay) [2]: bound to immobilized soluble ErbB3 comparably | AKT activation (phosphorylation) in MCF-7 cells (MCF-7 cells): markedly induced phosphorylation | ERK1/2 activation (phosphorylation) in MCF-7 cells (MCF-7 cells): markedly induced phosphorylation | ErbB3 phosphorylation in MCF-7 cells (MCF-7 cells): markedly induced phosphorylation | Competition for binding of biotinylated WT NRG1α (175-241) to immobilized soluble ErbB3 [3]: at comparable levels

B2: 3KE (175-241): NRG1α (175-241) with Lys181/Lys185/Lys187 mutated to Glu, SEQ ID NO:6 (3KE, long version) (protein)
chain: B1 chain with K7E, K11E, K13E
modifications: integrin-binding site within human neuregulin, residues 175-241of human neuregulin 1alpha, long version, 3KE mutant
Binding to immobilized soluble ErbB3 (ELISA-type assay) ([2]; listed as 3KE mutant NRG1α (175-241)): bound to immobilized soluble ErbB3 comparably | Binding to immobilized soluble ErbB3 (ELISA-type assay) [2, 4]: binds to ErbB3 at levels nearly comparable to WT NRG1α (175-241) | AKT activation (phosphorylation) in MCF-7 cells (MCF-7 cells): little or no AKT activation | ERK1/2 activation (phosphorylation) in MCF-7 cells (MCF-7 cells): much lower levels than WT NRG1α (175-241); also recorded: only weakly induced phosphorylation | ErbB3 phosphorylation in MCF-7 cells (MCF-7 cells): much lower levels than WT NRG1α (175-241); also recorded: only weakly induced phosphorylation | Competition for binding of biotinylated WT NRG1α (175-241) to immobilized soluble ErbB3 ([3]; listed as 3KE NRG1α (175-241)): at comparable levels | Competition for binding of biotinylated WT NRG1α (175-241) to immobilized soluble ErbB3 [3, 4]: binds to ErbB3 at levels comparable to WT NRG1α (175-241)
